# Measured values from patent US20090281028A1.
# Like-named read-outs stand apart in the source and are kept apart here. Ends that are not written are not given here.
# Key:
# Experiment in all cases: cell-based or functional assay
# [1] = target: human Kv1.3 voltage-gated potassium channel (human) (UniProt P22001)
# [2] = target: human Kv1.3 channel (human) (UniProt P22001)
# [3] = target: human Kv1.1 channel (human) (UniProt Q09470)
# [4] = target: human Kv1.1 voltage-gated potassium channel (human) (UniProt Q09470)
# [5] = target: human Kv1.3 channel (human) (UniProt P22001); remark: listed apart in the source
# Chain of human Kv1.3 channel (human) (P22001 whole entry): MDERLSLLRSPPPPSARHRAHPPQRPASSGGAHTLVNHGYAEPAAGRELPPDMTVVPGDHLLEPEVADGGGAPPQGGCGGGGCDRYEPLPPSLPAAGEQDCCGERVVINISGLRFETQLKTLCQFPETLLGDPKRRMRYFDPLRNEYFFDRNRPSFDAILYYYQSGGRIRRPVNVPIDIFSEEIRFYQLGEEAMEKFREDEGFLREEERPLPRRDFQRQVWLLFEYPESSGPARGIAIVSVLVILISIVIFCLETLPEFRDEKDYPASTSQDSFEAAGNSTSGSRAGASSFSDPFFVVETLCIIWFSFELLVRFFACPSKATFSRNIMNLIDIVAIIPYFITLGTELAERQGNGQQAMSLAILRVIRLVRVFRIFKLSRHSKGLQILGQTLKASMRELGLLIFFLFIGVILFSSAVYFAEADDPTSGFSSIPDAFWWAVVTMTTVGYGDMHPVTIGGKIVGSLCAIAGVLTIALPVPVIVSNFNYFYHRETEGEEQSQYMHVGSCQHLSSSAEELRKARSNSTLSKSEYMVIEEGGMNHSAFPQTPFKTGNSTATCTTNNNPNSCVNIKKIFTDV
# Chain of human Kv1.3 voltage-gated potassium channel (human) (P22001 whole entry): as above
# Chain of human Kv1.1 channel (human) (Q09470 whole entry): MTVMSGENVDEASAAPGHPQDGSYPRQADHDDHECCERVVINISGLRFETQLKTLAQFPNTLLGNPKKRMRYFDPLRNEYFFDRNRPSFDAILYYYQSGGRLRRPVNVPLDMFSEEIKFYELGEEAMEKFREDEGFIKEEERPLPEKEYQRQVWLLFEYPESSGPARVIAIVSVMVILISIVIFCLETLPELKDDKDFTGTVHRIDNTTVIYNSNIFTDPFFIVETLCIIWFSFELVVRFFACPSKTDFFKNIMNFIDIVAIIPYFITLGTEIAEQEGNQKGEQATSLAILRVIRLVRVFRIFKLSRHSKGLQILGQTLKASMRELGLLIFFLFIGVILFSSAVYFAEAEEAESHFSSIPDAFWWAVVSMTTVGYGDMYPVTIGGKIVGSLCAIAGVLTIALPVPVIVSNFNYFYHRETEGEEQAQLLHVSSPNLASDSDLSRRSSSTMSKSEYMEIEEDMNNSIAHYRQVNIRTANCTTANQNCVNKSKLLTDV
# Chain of human Kv1.1 voltage-gated potassium channel (human) (Q09470 whole entry): as above
molecule,measurement,setting,value
"20k PEG-OSK1[Ala29, 1Nal34] (peptide)","WB/IFNg (IC50, nM); human whole blood",[1],0.081 nM
same,"WB/IL-2 (IC50, nM); human whole blood",[1],0.049 nM
20k PEG-ShK (peptide),"WB/IFNg (IC50, nM); human whole blood",[1],0.065 nM
same,"WB/IL-2 (IC50, nM); human whole blood",[1],0.046 nM
E. coli-derived Fc-L-OSK1 (Fc fusion),"Kv1.3 IC50 by WCVC (nM), whole cell patch clamp, HEK293/Kv1.3 cells",[2],3.2 nM
E. coli-derived Fc-L-ShK[1-35] (Fc fusion),"Kv1.3 IC50 by WCVC (nM), whole cell patch clamp, HEK293/Kv1.3 cells",[2],1.4 nM
E. coli-derived Fc-L-ShK[2-35] (Fc fusion),"Kv1.3 IC50 by IWQ (nM), IonWorks planar patch clamp, CHO/Kv1.3 cells",[2],2.8 nM
same,"Kv1.3 IC50 by WCVC (nM), whole cell patch clamp, HEK293/Kv1.3 cells",[2],1.3 nM
E. coli-derived ShK[2-35]-L-Fc (Fc fusion),"Kv1.3 IC50 by IWQ (nM), IonWorks planar patch clamp, CHO/Kv1.3 cells",[2],4.9 nM
E. coli-derived Shk[1-35]-L-Fc (Fc fusion),"Kv1.3 IC50 by IWQ (nM), IonWorks planar patch clamp, CHO/Kv1.3 cells",[2],2.4 nM
"Fc-L5-ShK[2-35] (CHO-derived, bivalent dimeric) (Fc fusion)","IC50 of block of the outward potassium current, whole cell patch clamp",[2],100 pM
Fc-L10-OSK1 (Fc fusion),"hKv1.1: IC50 [pM], block of current, whole cell patch clamp",[3],41600 pM
Fc-L10-OSK1 (stably expressed in CHO cells) (Fc fusion),fold loss of potency (IC50 of Kv1.3 current block) against synthetic OSK1,[2],5 fold
"Fc-L10-ShK[2-35] (CHO-derived, bivalent dimeric) (Fc fusion)","IC50 of block of the outward potassium current, whole cell patch clamp",[2],115 pM
"Fc-L25-ShK[2-35] (CHO-derived, bivalent dimeric) (Fc fusion)","IC50 of inhibition of human Kv1.3, whole cell patch clamp",[2],150 pM
GGGGS-Osk1 (peptide),"WB/IFNg (IC50, nM); human whole blood",[1],2.2 nM
same,"WB/IL-2 (IC50, nM); human whole blood",[1],1.36 nM
"OSK1 (wild-type), toxin peptide of Orthochirus scrobiculosus scorpion venom","Kv1.3 (IC50, pM); whole cell patch clamp ePhys",[1],39 pM
same,Kv1.3 Selectivity (=Kv1.1/Kv.3 IC50),[1],5 fold
same,"Kv1.1 (IC50, pM); whole cell patch clamp ePhys",[4],202 pM
"OSK1-K16, D20 (peptide)","WB/IFNg (IC50, nM); human whole blood",[1],1.32 nM
same,"WB/IL-2 (IC50, nM); human whole blood",[1],1.58 nM
PEG-OSK1 (N-terminally 20 kDa PEGylated synthetic OSK1) (peptide),"peak IC50 of block of the outward potassium current, whole cell patch clamp",[2],1.28 nM
Synthetic OSK1 (peptide),"hKv1.1: IC50 [pM], block of current, whole cell patch clamp",[3],160 pM
same,"hKv1.3: IC50 [pM], block of current, whole cell patch clamp",[2],39 pM
same,selectivity ratio hKv1.1/hKv1.3 (IC50),[2],4 fold
SCIDTIPKSRCTAFQCKHSMKYRLSFCRKTCGTC (not fully specified; ends and bridges not checked) [synthetic ShK[2-35]],"IC50 of block of the outward potassium current, whole cell patch clamp",[5],49 pM
RSCIDTIPKSRCTAFQCKHSMKYRLSFCRKTCGTC (not fully specified; ends and bridges not checked) [20K PEG-ShK[1-35]],"peak IC50 of block of the outward potassium current, whole cell patch clamp",[5],0.169 nM
